The record followed here is patent US5998172.

The target in test [1] is activated leucocyte-cell adhesion molecule (ALCAM), CD6 ligand (human). Description: indirect immunofluorescence and flow cytometry, cultured TE cells; control. In general terms: In flow cytometry, cells or beads pass a laser one at a time.
Test [2] has the same target. Description: flow cytometry, TE cells, buffer with 5 mM CaCl2.
Test [3] has the same target. Nature of the test: flow cytometry, TE cells, 10 mM EDTA against DME with 5% FBS.
The target is the same in test [4].
The target is the same in test [5]. Description: flow cytometry, TE cells after CD58 mAb.
The target is the same in test [6]. Description: flow cytometry, HBL-100 cells after mAb J4-81.
For test [7] the target is unchanged. Nature of the test: flow cytometry, HBL-100 cells, 10 to 200 µg/ml.
For test [8] the target is unchanged. Nature of the test: flow cytometry, TE cells after CD66 mAb.
For test [9] the target is unchanged. Description: flow cytometry, TE cells, buffer with 5 mM MnCl2.
Test [10] shares this target. Nature of the test: flow cytometry, TE cells after CD63 mAb.
Test [11] has the same target. Description: flow cytometry, TE cells after mAb J4-81; CD5-Rg subtracted.
Test [12] shares this target. Description: flow cytometry, HBL-100 cells after control mAb P3; CD5-Rg subtracted.
The target is the same in test [13]. Description: flow cytometry, TE cells after CD59 mAb.
Test [14] has the same target. Nature of the test: flow cytometry, TE cells after mAb J4-81.
Test [15] has the same target. Description: flow cytometry, TE cells after CD40 mAb; CD5-Rg subtracted.
For test [16] the target is unchanged. Nature of the test: flow cytometry, TE cells after CD54 mAb.
Test [17] has the same target. Description: flow cytometry, HBL-100 cells after mAb J4-81; CD5-Rg subtracted.
For test [18] the target is unchanged. Description: flow cytometry, TE cells after CD24 mAb.
Test [19] has the same target. Nature of the test: flow cytometry, TE cells, buffer with 5 mM MgCl2.
Test [20] shares this target. Nature of the test: flow cytometry, HBL-100 cells after control mAb P3.
Test [21] has the same target. Description: flow cytometry, TE cells after CD9 mAb.
For test [22] the target is unchanged. Nature of the test: flow cytometry, TE cells after CD46 mAb.
The target is the same in test [23]. Nature of the test: flow cytometry, TE cells after CD40 mAb.
For test [24] the target is unchanged. Description: flow cytometry, TE cells after CD66 mAb; CD5-Rg subtracted.
The target is the same in test [25]. Description: flow cytometry, TE cells after control mAb P3.
The target is the same in test [26]. Nature of the test: flow cytometry, TE cells after CD24 mAb; CD5-Rg subtracted.
Test [27] has the same target. Description: flow cytometry, TE cells after CD54 mAb; CD5-Rg subtracted.
The target is the same in test [28]. Nature of the test: flow cytometry, TE cells after CD51 mAb.
Test [29] shares this target. Description: flow cytometry, TE cells after CD9 mAb; CD5-Rg subtracted.
Test [30] shares this target. Description: flow cytometry, TE cells after CD46 mAb; CD5-Rg subtracted.
Test [31] has the same target. Nature of the test: flow cytometry, TE cells after CD59 mAb; CD5-Rg subtracted.
For test [32] the target is unchanged. Description: flow cytometry, TE cells after CD51 mAb; CD5-Rg subtracted.
Test [33] shares this target. Description: flow cytometry, TE cells after control mAb P3; CD5-Rg subtracted.
Test [34] shares this target. Description: flow cytometry, TE cells after CD58 mAb; CD5-Rg subtracted.
The target is the same in test [35]. Nature of the test: indirect immunofluorescence and flow cytometry, cultured TE cells.
Test [36] has the same target. Description: flow cytometry, TE cells after CD63 mAb; CD5-Rg subtracted.
The target is the same in test [37]. The source holds these as a separate data set.

“CD5-Rg fusion protein (from UniProt P06127) (Fc fusion)”: the MFC (linear mean fluorescence channel) in [1] was found to be 72.1.

What is called % inhibition is the drop in the measured response relative to a control, in per cent. Regarding “CD6-Rg fusion protein (CD6 receptor globulin) (from UniProt P30203) (Fc fusion)”, the relative binding with 5 mM CaCl2 in test [2] was 144%. The molecule also registered a % inhibition of binding by 10 mM EDTA in test [3] of 54%. The molecule also came in with a % Inhibition of thymocyte-thymic epithelial cell binding (rosettes) in test [4] of 34.5%. The % Binding in [5] was determined as 87%; in test [6], 59%; in test [8], 108%; in test [10] it was 102%; in test [13], 100%; in test [14], 40%. Moreover, the % Binding is 85% in test [16]; 92% in test [18]; 100% in [20]; 115% in test [21]; 110% in test [22]; 92% in [23]. The % Binding came out at 100% in test [25] and 88% in test [28]. In addition, the % inhibition in [5] is 13%; in [8], -8%; in test [10] it was -2%; in test [13], 0%; in test [16], 15%; in test [18], 8%. The % inhibition in test [20] was 0%; in test [21], -15%; in test [22], -10%; in [23], 8%; in test [25] it was 0%; in [28] it was 12%. Moreover, the saturating concentration in [7] is 100 µg/mL. Besides, the relative binding with 5 mM MnCl2 in test [9] amounted to 318%. Also, the Δ Fluorescence in test [11] turned out to be 21; in [12] it was 58; in test [15], 48; in test [17], 34; in test [24], 56; in [26], 48. For the same molecule, the Δ Fluorescence in test [27] was found to be 44; in test [29], 60; in test [30], 57; in test [31], 52; in test [32], 46; in test [33], 52. The Δ Fluorescence in test [34] was found to be 45; in test [36] it was 53. The relative binding with 5 mM MgCl2 in [19] worked out at 94%. The same molecule registered an MFC (linear mean fluorescence channel) in test [35] of 165.

Take “ELAM1-Rg fusion protein (from UniProt P16581) (Fc fusion)”: the MFC (linear mean fluorescence channel) in test [1] was 70.5.

Take human IgG1 (control): the MFC (linear mean fluorescence channel) in test [1] was determined as 72.9.

B1: CD6, P30203 (protein)
chain: HPSPAPPDQLNTSSAESELWEPGERLPVRLTNGSSSCSGTVEVRLEASWEPACGALWDSRAAEAVCRALGCGGAEAASQLAPPTPELPPPPAAGNTSVAANATLAGAPALLCSGAEWRLCEVVEHACRSDGRRARVTCAENRALRLVDGGGACAGRVEMLEHGEWGSVCDDTWDLEDAHVVCRQLGCGWAVQALPGLHFTPGRGPIHRDQVNCSGAEAYLWDCPGLPGQHYCGHKEDAGAVCSEHQSWRLTGGADRCEGQVEVHFRGVWNTVCDSEWYPSEAKVLCQSLGCGTAVERPKGLPHSLSGRMYYSCNGEELTLSNCSWRFNNSNLCSQSLAARVLCSASRSLHNLSTPEVPASVQTVTIESSVTVKIENKESRELMLLIPSIVLGILLLGSLIFIAFILLRIKGKYALPVMVNHQHLPTTIPAGSNSYQPVPITIPKEVFMLPIQVQAPPPEDSDSGSDSDYEHYDFSAQPPVALTTFYNSQRHRVTDEEVQQSRFQMPPLEEGLEELHASHIPTANPGHCITDPPSLGPQYHPRSNSESSTSSGEDYCNSPKSKLPPWNPQVFSSERSSFLEQPPNLELAGTQPAFSAGPPADDSSSTSSGEWYQNFQPPPQPPSEEQFGCPGSPSPQPDSTDNDDYDDISAA
In test [37], B1 registered a % COS cells binding TE cells of 25%.
